Experimental findings from patent US20040001842A1 are described below.

Assay [1] addresses human CCK-B/gastrin receptor (human) (UniProt P32239). The assay can be described thus: 125I-labelled serum injected into nude mice with C170HM2 liver xenografts, CPM/g.
Assay [2] addresses CCK-B/gastrin receptor on AR42J cells (rat pancreatic adenocarcinoma) (rat) (UniProt P30553). The assay can be described thus: radioligand inhibition on AR42J cells, GnRH against 125I-hG17.
For assay [3], the target named is affinity purified rabbit Anti-GRE11 antibodies. Nature of the assay: quantitative immunofluorescence on H69 cells, peptide as inhibitor, relative to GnRH.
Assay [4] has as its target Affinity purified rabbit anti-GRE1 antibodies. The assay can be described thus: inhibition ELISA, peptide in solution against GRE1-Ser-BSA on the plate. Background: In an ELISA, binding on a coated surface is turned into a signal by an enzyme label.
Assay [5] shares this target. Nature of the assay: inhibition ELISA, mixture of GRE1 EPT and Ser spacer in solution against GRE1-Ser-BSA on the plate.
In assay [6] the target is affinity purified rabbit Anti-GRE11 antibodies. The assay can be described thus: quantitative immunofluorescence on H69 cells, 1:1 mixture of GRE1 and GRE6 as inhibitor, relative to GnRH.

Chain of UniProt P30553 (P30553 whole entry): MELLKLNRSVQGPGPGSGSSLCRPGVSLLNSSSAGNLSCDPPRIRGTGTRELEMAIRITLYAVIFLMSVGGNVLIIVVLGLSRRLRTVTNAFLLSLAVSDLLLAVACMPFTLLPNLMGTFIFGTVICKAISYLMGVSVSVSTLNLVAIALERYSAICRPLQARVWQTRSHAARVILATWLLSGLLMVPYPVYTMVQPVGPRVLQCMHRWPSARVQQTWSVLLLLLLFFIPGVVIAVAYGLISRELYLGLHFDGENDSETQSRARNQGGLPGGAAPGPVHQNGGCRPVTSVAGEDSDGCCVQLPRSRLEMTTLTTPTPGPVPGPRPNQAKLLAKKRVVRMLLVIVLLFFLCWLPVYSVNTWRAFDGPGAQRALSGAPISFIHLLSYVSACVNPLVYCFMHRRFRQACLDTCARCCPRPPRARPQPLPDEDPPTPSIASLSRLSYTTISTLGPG

Turning to normal rabbit serum, the liver tumor/liver ratio of radiolabel in assay [1] came out at 1.

“gonadotropin releasing hormone (from UniProt P01148 24-33) (peptide)”: in assay [2], the % inhibition of 125I-hG17 binding is 6%.

In turn, MELLKLNRSVQGTGPGPGASLC [GRE11 peptide] came in with a percent inhibition of antibody binding in assay [3] of 84%.

Consider MELLKLNRSVQGC [GRE6 peptide], for which the percent inhibition of antibody binding in assay [3] was 4%.

Turning to KLNRSVQGTGPGPGASL [GRE1 EPT peptide], the % inhibition in assay [4] and in assay [5] was 60% each time. The percent inhibition of antibody binding in assay [3] came out at 57%; in assay [6], 49%.
